Columns and labels:
[1] = target: GST-p120-catenin isoform 4A (mouse); assay: pull-down
[2] = target: GST-p120-catenin isoform 4A Δ560–628 (mouse); assay: pull-down

GST-p120-catenin isoform 4A (mouse), sequence (P30999 whole entry, canonical isoform): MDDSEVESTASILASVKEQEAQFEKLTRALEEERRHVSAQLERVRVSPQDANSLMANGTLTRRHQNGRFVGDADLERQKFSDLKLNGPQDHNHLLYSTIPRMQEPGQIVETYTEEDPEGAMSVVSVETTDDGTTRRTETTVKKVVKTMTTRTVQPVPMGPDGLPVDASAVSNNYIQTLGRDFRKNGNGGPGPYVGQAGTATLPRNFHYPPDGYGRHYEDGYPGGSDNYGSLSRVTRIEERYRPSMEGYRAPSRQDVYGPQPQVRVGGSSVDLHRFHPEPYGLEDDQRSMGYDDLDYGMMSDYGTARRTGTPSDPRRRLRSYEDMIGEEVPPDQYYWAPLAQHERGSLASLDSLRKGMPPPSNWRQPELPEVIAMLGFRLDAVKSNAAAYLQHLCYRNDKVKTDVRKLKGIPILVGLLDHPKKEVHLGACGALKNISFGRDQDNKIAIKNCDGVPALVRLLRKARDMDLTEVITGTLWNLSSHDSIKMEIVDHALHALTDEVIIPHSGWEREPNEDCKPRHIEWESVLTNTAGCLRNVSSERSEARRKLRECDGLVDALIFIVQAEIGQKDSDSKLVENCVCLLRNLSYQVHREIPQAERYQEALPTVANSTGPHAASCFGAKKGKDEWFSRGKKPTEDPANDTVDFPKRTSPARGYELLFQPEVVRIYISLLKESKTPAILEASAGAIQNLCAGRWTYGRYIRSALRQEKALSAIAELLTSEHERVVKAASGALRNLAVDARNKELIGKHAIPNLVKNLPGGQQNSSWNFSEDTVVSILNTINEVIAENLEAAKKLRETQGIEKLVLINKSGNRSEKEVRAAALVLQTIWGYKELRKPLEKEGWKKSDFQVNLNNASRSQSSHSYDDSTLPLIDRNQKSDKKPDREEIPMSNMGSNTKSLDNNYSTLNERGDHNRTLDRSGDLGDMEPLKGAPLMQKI

With “p190RhoGAP-B (from UniProt Q13017 1-1502) (natural protein)” the p190B bound, percent of that bound to isoform 3A [1] was 43% and the p190B bound, percent of that bound to isoform 3A [2] was 38%.

From publication PMC3667722
